{"source": "paper PMC3365711", "about": "(The Journal of Biological Chemistry, 2012)", "molecular_target": "human HP1 CSDα (109–185) (human, UniProt P45973 109-185)", "sequence (P45973 109-185)": "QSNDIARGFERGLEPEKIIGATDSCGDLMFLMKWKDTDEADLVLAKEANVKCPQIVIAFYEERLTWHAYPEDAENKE", "assay": "other fluorescence titration", "data": [{"binder": "SKAGDLLFIEKVPVVVLEDILATKPSIAS (peptide, UniProt Q9QWF0 210-238, looked up)", "note": "[CAF1 p150(210–238)]", "values": [{"measurement": "Kd", "result": "430 ± 100", "unit": "nM"}]}]}
